In the test the target is T1, recombinant human mesothelin (amino acids 296-600 of SEQ ID NO: 4) (human, UniProt Q13421 296-600).
T1 construct: Secreted from SF9 insect cells (baculovirus vector pAcGP67) and purified by nickel column and gel filtration; It was coated on ELISA plates and, biotin-labelled, used for panning; also called recombinant mesothelin; purified mesothelin
The test can be described thus: ELISA, recombinant mesothelin coated on plate, anti-FLAG-HRP detection.

Description: Antigen (mesothelin) diluted in PBS was coated on narrow-well 96-well plates at 50 ng/well overnight at 4° C. Wells were blocked with 100 μl of 4% milk/PBS (MPBS) for 1 hour at 37° C. […] Fifty μl of diluted Fab was added to duplicate wells. For competition ELISA, designated concentrations of competing IgG were included in all Fab solutions. After 2 hours of incubation at 37° C., the wells were washed with PBST (PBS+0.05% Tween 20) 4 times. […] Wells were washed again with PBST. Substrate ABTS was added (50 μl/well), and the reaction was read at A405 nm. For ELISA with IgG, a goat anti-human Fc IgG conjugated with HRP was used at 1:1000.

B1: Fab m912 (Fab, V domains shown)
VH: QVQLQESGPGLVKPSETLSLTCTVSGGSVSSGSYYWSWIRQPPGKGLEWIGYIYYSGSTNYNPSLKSRVTISVDTSKNQFSLKLSSVTAADTAVYYCAREGKNGAFDIWGQGTMVTVSS
VL: not shown
notes: Human Fab from a naive Fab phage library, expressed in E. coli HB2151; also called clone m912; mesothelin-specific antibody m912
For B1, the 50% effective concentration (EC50) was determined as 20 nM.

These data come from US20110020361A1 (GOVERNMENT OF THE UNITED STATES OF AMERICA AS REPRESENTED …, published 2011).
